Assay results taken from article PMC7567106, “Generalized enzymatic mechanism of catalysis by tetrameric L-asparaginases from mesophilic bacteria” (Scientific Reports, 2020).

Key:
[1] = target: L-glutaminase-asparaginase from Pseudomonas 7A, wild type (Pseudomonas 7A) (UniProt Q88K39); experiment: crystal structure; co-crystallised with small ligands, hanging drop; protein 12.5-13.5 mg/ml in 50 mM HEPES pH 7.0, 200 mM NaCl; four protomers in the asymmetric unit as two intimate dimers (A,B) and (C,D)
[2] = target: L-glutaminase-asparaginase from Pseudomonas 7A, K173M variant (Pseudomonas 7A) (UniProt Q88K39); experiment: as above
[3] = target: T1, EcAII (type II L-asparaginase from E. coli) (Escherichia coli, UniProt P00805); experiment: Q-TOF LC/MS of substrate, product and hydroxamate (data not shown); type: biochemical; conditions: 25 mM HEPES pH 7.7; 8 mM substrate, 27.8 nM enzyme, 0.4 M NH2OH
T1 construct: gene ansB; periplasmic enzyme, homotetramer; preparation not described here
T1 sequence (P00805 23-348): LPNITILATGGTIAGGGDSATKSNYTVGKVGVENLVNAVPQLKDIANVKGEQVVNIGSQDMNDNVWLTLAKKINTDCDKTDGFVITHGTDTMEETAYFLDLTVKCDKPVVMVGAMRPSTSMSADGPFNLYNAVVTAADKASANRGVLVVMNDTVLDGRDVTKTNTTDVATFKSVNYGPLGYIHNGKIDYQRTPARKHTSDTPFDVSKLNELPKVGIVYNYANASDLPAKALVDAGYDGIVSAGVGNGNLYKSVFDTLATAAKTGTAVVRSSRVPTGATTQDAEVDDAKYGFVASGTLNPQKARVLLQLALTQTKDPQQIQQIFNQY

L-glutaminase-asparaginase from Pseudomonas 7A, wild type (from UniProt Q88K39 26-362) (enzyme)
stoichiometry N [1]: 4

L-glutaminase-asparaginase from Pseudomonas 7A, K173M variant (from UniProt Q88K39 26-362) (enzyme)
stoichiometry N [2]: 4

NC(=O)C[C@H](N)C(=O)O [L-Asn]
Q-TOF LC/MS of substrate, product and hydroxamate (data not shown) [3]: EcAII(wt) with L-Asn were monitored (not shown)
